Data: patent US20120208232, “Cell-Free Synthesis of Active Reprogramming Transcription Factors” (published 2012)

Columns and labels:
[1] = target: rhNanog (Homo sapiens, UniProt Q9H9S0 Q9H9S0:1-305); experiment: NoShift plate assay, positive control; conditions: tags: Abcam; label: biotin
Procedure: (§1) Assessment of the DNA Binding Activities of the Fusion Reprogramming Factors. The DNA-binding activities of the R9-Nanog, R9-Oct3/4, and R9-Sox2 fusion proteins were assayed by colorimetry utilizing the NoShift Transcription Factor Assay Kit (Novagen) according to the manufacturer's instructions. To assess sequence-specific binding activity, 1-2 μg of the R9-Nanog fusion protein, 2-10 μg of the R9-Oct3/4 fusion protein or 1-4 μg of the R9-Sox2 fusion protein were each incubated in […] with 0.5 μM of their respective biotinylated consensus dsDNA binding targets. […] Non-biotinylated competitor consensus dsDNA and scrambled dsDNA used to assess competitive binding were added at […]. As a positive control, recombinant human (rh) Nanog (Abcam) and rhSox (Peprotech) were used. HRP-conjugated anti-mouse immunoglobulin G was used as a secondary antibody to recognize the anti-Nanog (Abcam), anti-Oct3/4 (R&D Systems), and anti-Sox2 (R&D Systems) mouse monoclonal antibodies. All assays were performed in duplicate. Binding activity was measured via colorimetric absorbance at 450 nm on a Tecan multiwell spectrophotometer using 3,3,5,5-tetramethylbenzidine as the substrate.
(§2) The NoShift Assay (Novagen) was used to verify the DNA binding activities of R9-Nanog, R9-Sox2, and R9-Oct3/4. […]

[2] = target: R9-Oct3/4 (Homo sapiens, UniProt Q01860 Q01860:1-360); experiment: NoShift plate assay, 0.5 uM DNA; reduced by unlabelled consensus competitor; conditions: protein: synthetic; tags: N-terminal CAT9-StrepTagII-Xa-R9-His6-G4S fusion, E. coli cell-free synthesis; label: biotin
Procedure: as §1, §2

[3] = target: R9-Sox2 (Homo sapiens, UniProt P48431 P48431:1-317); experiment: as above; conditions: protein: synthetic; tags: N-terminal CAT9-StrepTagII-Xa-R9-His6-G4S fusion, E. coli cell-free synthesis; label: biotin
Procedure: as §1, §2

[4] = target: rhSox2 (Homo sapiens, UniProt P48431 P48431:1-317); experiment: NoShift plate assay, positive control; conditions: tags: Peprotech; label: biotin
Procedure: as §1, §2

Sequence of rhNanog (Q9H9S0 whole entry, the tested form may be a part, one chain of several): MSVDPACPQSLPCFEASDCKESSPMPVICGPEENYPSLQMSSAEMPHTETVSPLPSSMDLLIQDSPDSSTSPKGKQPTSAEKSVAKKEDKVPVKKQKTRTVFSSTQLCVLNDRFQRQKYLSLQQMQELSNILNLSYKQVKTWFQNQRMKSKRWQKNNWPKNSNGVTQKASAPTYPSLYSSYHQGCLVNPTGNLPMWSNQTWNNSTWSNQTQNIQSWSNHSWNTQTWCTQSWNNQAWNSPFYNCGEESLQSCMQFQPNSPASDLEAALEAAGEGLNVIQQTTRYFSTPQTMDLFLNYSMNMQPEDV
Sequence of rhSox2 (P48431 whole entry, one chain of several): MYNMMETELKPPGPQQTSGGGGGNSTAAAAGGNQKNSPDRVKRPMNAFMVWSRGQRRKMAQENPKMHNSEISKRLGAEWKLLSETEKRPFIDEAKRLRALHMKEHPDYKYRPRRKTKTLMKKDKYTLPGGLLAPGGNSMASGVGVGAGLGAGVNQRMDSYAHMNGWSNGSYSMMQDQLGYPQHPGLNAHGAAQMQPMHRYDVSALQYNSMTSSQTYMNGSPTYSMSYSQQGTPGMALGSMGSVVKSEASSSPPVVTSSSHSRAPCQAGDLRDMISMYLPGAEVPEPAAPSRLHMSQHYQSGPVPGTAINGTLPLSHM
Sequence of R9-Sox2 (P48431 whole entry, the tested form may be a part, one chain of several): as the sequence (P48431 whole entry, one chain of several) above
Sequence of R9-Oct3/4 (Q01860 whole entry, the tested form may be a part, one chain of several): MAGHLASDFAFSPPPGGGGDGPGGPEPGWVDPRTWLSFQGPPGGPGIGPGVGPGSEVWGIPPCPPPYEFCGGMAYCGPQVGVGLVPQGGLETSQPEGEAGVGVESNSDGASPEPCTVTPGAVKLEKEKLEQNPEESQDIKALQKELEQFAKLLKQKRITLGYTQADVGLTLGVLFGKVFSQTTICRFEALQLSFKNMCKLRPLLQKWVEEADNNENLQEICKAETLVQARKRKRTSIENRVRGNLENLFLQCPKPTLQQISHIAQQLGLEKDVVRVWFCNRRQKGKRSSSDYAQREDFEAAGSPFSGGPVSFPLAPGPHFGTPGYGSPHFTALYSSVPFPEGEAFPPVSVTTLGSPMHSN

B1: Nanog consensus dsDNA (dsDNA)
DNA 1: ACCTGTTAATGGGAGCGC
DNA 2: GCGCTCCCATTAACAGGT
B1: binds [1].

B2: Oct3/4 consensus dsDNA (dsDNA)
DNA 1: GCAGAGAGATGCATGTGCCGT
DNA 2: ACGGCACATGCATCTCTCTGC
B2: binds [2].

B3: Sox2 consensus dsDNA (dsDNA)
DNA 1: GCAGAGGACAAAGGTGCCGTG
DNA 2: CACGGCACCTTTGTCCTCTGC
B3: binds [3]; binds [4].
